Paper PMC13202173, “Polyphosphate as a novel regulator of super-enhancer complexes: disruption of phase separation and gene expression”

Target: MBP-mCherry-YY1 (Homo sapiens, UniProt P25490 1-414)
Experiment: EMSA; 10 uM Zn2+, 100 mM KCl, no polyP; 2 uM protein, 25 nM probe; Motif EMSA: 10 mM Tris pH 7.5, 50 mM KCl, DTT, Tween 20, 5 mM MgCl2, ~25 nM probe, room temperature 30 min; G4 EMSA: 10 mM Tris-HCl pH 7.5, 100 mM KCl, 10 uM Zn, 1 mM DTT, 3% glycerol, room temperature 30 min; anisotropy: same without glycerol, on ice 30 min
Conditions: protein: recombinant; tags: N-MBP-TEV, C-mCherry; label: 5' IRDye 700 on strand 1; G4 as stated by authors, annealed with S4 in 100 mM KCl; S3/S4 otherwise pair with mismatches

Sequence of MBP-mCherry-YY1 (P25490 whole entry): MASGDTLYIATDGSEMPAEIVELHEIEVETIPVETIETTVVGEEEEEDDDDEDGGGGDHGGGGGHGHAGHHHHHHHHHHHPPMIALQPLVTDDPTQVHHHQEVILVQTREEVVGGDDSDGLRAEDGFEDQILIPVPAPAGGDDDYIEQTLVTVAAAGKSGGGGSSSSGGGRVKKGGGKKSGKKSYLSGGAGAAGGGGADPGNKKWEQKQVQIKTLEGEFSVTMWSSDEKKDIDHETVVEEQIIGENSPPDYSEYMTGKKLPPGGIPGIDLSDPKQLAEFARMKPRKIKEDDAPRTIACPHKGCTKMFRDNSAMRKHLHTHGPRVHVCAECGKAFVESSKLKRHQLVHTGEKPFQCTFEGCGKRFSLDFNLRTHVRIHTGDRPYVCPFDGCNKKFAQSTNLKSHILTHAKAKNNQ

B1: human telomere G4 (hTEL) probe (structured_DNA)
DNA 1: AAAGGGTTAGTGTTAGTGTTAGGGAA
DNA 2: TTCCCTAACCCTAACCCTAACCCTTT
B1: binds.
